This is an account of results in US20210309696A1 (ENLITISA SHANGHAI PHARMACEUTICAL, published 2021).

Holding throughout (assay): cell-based or functional assay
Test [1] has as its target CysLTR1 (cysteinyl leukotriene receptor CysLT1), expressed in the CYSLTR1/HEK293 cell line (UniProt Q9Y271).
The target in test [2] is T1, CysLTR1 (cysteinyl leukotriene receptor CysLT1), expressed in the CYSLTR1/HEK293 cell line (UniProt Q9Y271 1-337, limits assumed).
T1 sequence (looked up): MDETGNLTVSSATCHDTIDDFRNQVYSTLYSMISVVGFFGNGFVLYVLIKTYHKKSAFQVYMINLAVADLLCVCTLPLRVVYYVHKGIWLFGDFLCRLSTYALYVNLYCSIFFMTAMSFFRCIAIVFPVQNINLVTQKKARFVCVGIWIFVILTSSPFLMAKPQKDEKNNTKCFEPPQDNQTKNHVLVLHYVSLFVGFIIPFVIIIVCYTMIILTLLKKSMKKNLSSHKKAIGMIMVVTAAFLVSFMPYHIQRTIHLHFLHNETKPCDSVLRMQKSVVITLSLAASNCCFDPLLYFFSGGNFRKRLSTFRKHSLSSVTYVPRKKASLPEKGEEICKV

Test [3] concerns the target T1, CysLTR1 (cysteinyl leukotriene receptor …). This is another data set of the same source.
Test [4] has the same target. The source holds these as a separate data set.

Non-standard residues stand in square brackets, D forms with d. No end group written: not given here. Hyp = O=C(O)[C@@H]1C[C@@H](O)CN1

As to “Montelukast-Ala-Lys-Pro-Ser-Tyr-Hyp-Thr-Tyr-Hyp-Lys (montelukast covalently bonded at the N-terminus) (peptide)”, in test [1], the IC50 (nM), in vitro CysLTR1 FLIPR antagonist test (Fluo-4 calcium assay, CYSLTR1/HEK293 cells) came out at 99.5 nM.

B1: Montelukast styrene-Ala-Lys-Pro-Ser-Tyr-Hyp-Hyp-Thr-Tyr-Lys (montelukast styrene covalently bonded to amino acid SEQ ID No: 12 at the N-terminus) (peptide)
peptide: {montelukast styrene}-AKPSY[Hyp][Hyp]TYK
On to B1, for which, in test [2], the “IC50 (nM), in vitro CysLTR1 FLIPR antagonist test (Fluo-4 calcium assay, CYSLTR1/HEK293 cells)” value worked out at 475 nM.

B2: Montelukast-Ala-Lys-Pro-Ser-Tyr-Hyp-Hyp-Thr-Tyr-Lys (montelukast covalently bonded to amino acid SEQ ID No: 12 at the N-terminus) (peptide)
peptide: montelukast-AKPSY[Hyp][Hyp]TYK
On to B2, for which, in test [2], the “IC50 (nM), in vitro CysLTR1 FLIPR antagonist test (Fluo-4 calcium assay, CYSLTR1/HEK293 cells)” value was determined as 90.5 nM. In test [3], the “IC50 (nM), in vitro CysLTR1 FLIPR antagonist test (Fluo-4 calcium assay, CYSLTR1/HEK293 cells), repeat” value amounted to 140 nM. Moreover, in test [4], the “affinity to CysLTR1 relative to Compound A, derived from the FLIPR antagonist IC50s” value is 5 fold against Compound A.
